From patent US20240270857A1 (CHIA TAI TIANQING PHARMACEUTICAL GROUP, published 2024)

B1: hz84C4-1.1 (antibody, human IgG4 S228P, kappa, V domains shown)
VH: QVQLVQSGAEVKKPGASVKVSCKASGYFFTSYWMNWVRQAPGQGLEWMGMIHPYDSETRYAQKFQGRVTMTVDKSTSTVYMELSSLRSEDTAVYYCASSTTAFAYWGQGTLVTVSS
VL: DIQMTQSPSSLSASVGDRVTITCRASQDIGNALNWYQQKPGKAPKRLIYATSSLDPGVPSRFSGSRSGTDFTLTISSLQPEDFATYYCLQYASSPYTFGQGTKVEIKR
notes: Humanized, human IgG4 / kappa
B2: hz84C4-2.2 (antibody, human IgG4 S228P, kappa, V domains shown)
VH: QVQLVQSGAEVKKPGASVKVSCKASGYFFTSYWMNWVRQAPGQGLEWMGYIHPYDSETRYAQKFQGRVTMTVDKSTSTVYMELSSLRSEDTAVYYCASSTTAFAYWGQGTLVTVSS
VL: DIQMTQSPSSLSASVGDRVTITCRASQDIGNALNWLQQKPGKAPKRLIYATSSLDPGVPSRFSGSRSGTDYTLTISSLQPEDFATYYCLQYASSPYTFGQGTKVEIKR
notes: Humanized, human IgG4 / kappa
B3: hz84C4-2.4 (antibody, human IgG4 S228P, kappa, V domains shown)
VH: QVQLVQSGAEVKKPGASVKVSCKASGYYFTSYWMNWVRQAPGQGLEWMGMIHPYDSETRLAQKFKGRVTMTVDKSTSTVYMELSSLRSEDTAVYYCASSTTAFAYWGQGTLVTVSS
VL: DIQMTQSPSSLSASVGDRVTITCRASQDIGNALNWLQQKPGKAPKRLIYATSSLDPGVPSRFSGSRSGTDYTLTISSLQPEDFATYYCLQYASSPYTFGQGTKVEIKR
notes: Humanized, human IgG4 / kappa
B4: hz84C4-2.5 (antibody, human IgG4 S228P, kappa, V domains shown)
VH: QVQLVQSGAEVKKPGASVKVSCKVSGYFFTSYWMNWVNQAPGQGLEWMGMIHPYDSETRLAQKFKGRVTMTVDKSTSTVYMELSSLRSEDTAVYYCASSTTAFAYWGQGTLVTVSS
VL: DIQMTQSPSSLSASVGDRVTITCRASQDIGNALNWLQQKPGKAPKRLIYATSSLDPGVPSRFSGSRSGTDYTLTISSLQPEDFATYYCLQYASSPYTFGQGTKVEIKR
notes: Humanized, human IgG4 / kappa
B5: hz84C4-1.5 (antibody, human IgG4 S228P, kappa, V domains shown)
VH: QVQLVQSGAEVKKPGASVKVSCKVSGYFFTSYWMNWVNQAPGQGLEWMGMIHPYDSETRLAQKFKGRVTMTVDKSTSTVYMELSSLRSEDTAVYYCASSTTAFAYWGQGTLVTVSS
VL: DIQMTQSPSSLSASVGDRVTITCRASQDIGNALNWYQQKPGKAPKRLIYATSSLDPGVPSRFSGSRSGTDFTLTISSLQPEDFATYYCLQYASSPYTFGQGTKVEIKR
notes: Humanized, human IgG4 / kappa
B6: hz84C4-2.1 (antibody, human IgG4 S228P, kappa, V domains shown)
VH: QVQLVQSGAEVKKPGASVKVSCKASGYFFTSYWMNWVRQAPGQGLEWMGMIHPYDSETRYAQKFQGRVTMTVDKSTSTVYMELSSLRSEDTAVYYCASSTTAFAYWGQGTLVTVSS
VL: DIQMTQSPSSLSASVGDRVTITCRASQDIGNALNWLQQKPGKAPKRLIYATSSLDPGVPSRFSGSRSGTDYTLTISSLQPEDFATYYCLQYASSPYTFGQGTKVEIKR
notes: Humanized, human IgG4 / kappa
B7: hz84C4-1.2 (antibody, human IgG4 S228P, kappa, V domains shown)
VH: QVQLVQSGAEVKKPGASVKVSCKASGYFFTSYWMNWVRQAPGQGLEWMGYIHPYDSETRYAQKFQGRVTMTVDKSTSTVYMELSSLRSEDTAVYYCASSTTAFAYWGQGTLVTVSS
VL: DIQMTQSPSSLSASVGDRVTITCRASQDIGNALNWYQQKPGKAPKRLIYATSSLDPGVPSRFSGSRSGTDFTLTISSLQPEDFATYYCLQYASSPYTFGQGTKVEIKR
notes: Humanized, human IgG4 / kappa
B8: hz84C4-2.3 (antibody, human IgG4 S228P, kappa, V domains shown)
VH: QVQLVQSGAEVKKPGASVKVSCKASGYFFTSYWMNWVRQAPGQGLEWMGMIYPYDSETRYAQKFQGRVTMTVDKSTSTVYMELSSLRSEDTAVYYCASSTTAFAYWGQGTLVTVSS
VL: DIQMTQSPSSLSASVGDRVTITCRASQDIGNALNWLQQKPGKAPKRLIYATSSLDPGVPSRFSGSRSGTDYTLTISSLQPEDFATYYCLQYASSPYTFGQGTKVEIKR
notes: Humanized, human IgG4 / kappa
B9: hz84C4-1.3 (antibody, human IgG4 S228P, kappa, V domains shown)
VH: QVQLVQSGAEVKKPGASVKVSCKASGYFFTSYWMNWVRQAPGQGLEWMGMIYPYDSETRYAQKFQGRVTMTVDKSTSTVYMELSSLRSEDTAVYYCASSTTAFAYWGQGTLVTVSS
VL: DIQMTQSPSSLSASVGDRVTITCRASQDIGNALNWYQQKPGKAPKRLIYATSSLDPGVPSRFSGSRSGTDFTLTISSLQPEDFATYYCLQYASSPYTFGQGTKVEIKR
notes: Humanized, human IgG4 / kappa
B10: hz84C4-1.4 (antibody, human IgG4 S228P, kappa, V domains shown)
VH: QVQLVQSGAEVKKPGASVKVSCKASGYYFTSYWMNWVRQAPGQGLEWMGMIHPYDSETRLAQKFKGRVTMTVDKSTSTVYMELSSLRSEDTAVYYCASSTTAFAYWGQGTLVTVSS
VL: DIQMTQSPSSLSASVGDRVTITCRASQDIGNALNWYQQKPGKAPKRLIYATSSLDPGVPSRFSGSRSGTDFTLTISSLQPEDFATYYCLQYASSPYTFGQGTKVEIKR
notes: Humanized, human IgG4 / kappa

Assays:
[1] = target: T1, IL-36R naturally expressed on OVCAR8 cells and on normal human epidermal keratinocytes (NHK cells) (human, UniProt Q9HB29 20-575); assay: cell-based or functional assay
T1 sequence (looked up): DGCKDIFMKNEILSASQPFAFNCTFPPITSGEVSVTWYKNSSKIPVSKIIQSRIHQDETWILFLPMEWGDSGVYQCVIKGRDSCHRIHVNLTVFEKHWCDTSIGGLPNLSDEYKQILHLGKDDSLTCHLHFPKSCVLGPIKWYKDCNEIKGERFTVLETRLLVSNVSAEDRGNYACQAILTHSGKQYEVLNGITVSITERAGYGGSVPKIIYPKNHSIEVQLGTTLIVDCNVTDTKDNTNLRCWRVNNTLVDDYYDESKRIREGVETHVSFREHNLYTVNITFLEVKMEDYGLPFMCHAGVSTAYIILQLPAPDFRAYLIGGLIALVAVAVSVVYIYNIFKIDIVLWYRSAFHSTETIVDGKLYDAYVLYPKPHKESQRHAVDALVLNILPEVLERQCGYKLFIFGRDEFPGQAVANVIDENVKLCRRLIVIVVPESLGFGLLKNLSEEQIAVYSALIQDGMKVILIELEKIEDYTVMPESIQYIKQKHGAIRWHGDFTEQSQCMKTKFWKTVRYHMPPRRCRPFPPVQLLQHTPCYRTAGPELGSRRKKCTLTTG

[2] = target: T2, human IL-36R overexpressed on 293T-hIL36R-NFκB cells (human, UniProt Q9HB29 20-575); assay: FACS on 293T-hIL36R-NFκB cells, ratio of MFI to background MFI
T2 construct: Entry includes the signal peptide; also called IL1RL2; IL-1Rrp2
T2 sequence: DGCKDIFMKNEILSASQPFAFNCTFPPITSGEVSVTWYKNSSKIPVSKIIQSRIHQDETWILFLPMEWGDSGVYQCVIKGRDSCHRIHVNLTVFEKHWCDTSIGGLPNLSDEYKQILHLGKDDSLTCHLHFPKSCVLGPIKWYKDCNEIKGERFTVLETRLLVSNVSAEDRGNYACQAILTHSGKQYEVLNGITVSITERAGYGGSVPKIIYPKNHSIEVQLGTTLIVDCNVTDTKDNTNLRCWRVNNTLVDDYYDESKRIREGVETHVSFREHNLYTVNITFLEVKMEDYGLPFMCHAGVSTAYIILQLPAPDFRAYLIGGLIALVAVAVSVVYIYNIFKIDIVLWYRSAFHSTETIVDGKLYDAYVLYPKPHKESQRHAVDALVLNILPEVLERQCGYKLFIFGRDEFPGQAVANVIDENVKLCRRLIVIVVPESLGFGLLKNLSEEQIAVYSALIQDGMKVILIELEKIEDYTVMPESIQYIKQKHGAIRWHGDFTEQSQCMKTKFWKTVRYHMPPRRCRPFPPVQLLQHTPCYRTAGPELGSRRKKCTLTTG
Procedure: After the cells was washed with PBS, the cells were resuspended with 100 μL of PBS and then the fluorescence signal was detected using a flow cytometer (BD, Accuri C6). […] The ratio was the ratio of mean fluorescence intensity (MFI) of the experimental group/the background MFI, and the resulting data were analyzed using GraphPad Prism.
Affinity, binding and blocking assays for humanized antibodies hz72C1-1.1, hz72C1-1.2, hz72C1-1.3, hz72C1-2.1, hz72C1-2.2 and hz72C1-2.3 as well as hz84C4-1.1, hz84C4-1.2, hz84C4-1.3, hz84C4-1.4, hz84C4-1.5, hz84C4-2.1, hz84C4-2.2, hz84C4-2.3, hz84C4-2.4 and hz84C4-2.5 were performed according to the methods of Example 4, Example 5. Example 6, Example 7 and Example 8.

Binder | IC50 (M); hIL36α; IL-8 production [1] [M] | IC50 (M); hIL36αβγ; IL-8 production [1] [M] | IC50 (M); hIL36β; IL-8 production [1] [M] | IC50 (M); hIL36γ; IL-8 production [1] [M] | Maximum inhibition rate %; hIL36α; IL-8 production [1] [%] | Maximum inhibition rate %; hIL36αβγ; IL-8 production [1] [%] | Maximum inhibition rate %; hIL36β; IL-8 production [1] [%] | Maximum inhibition rate %; hIL36γ; IL-8 production [1] [%] | EC50 [2] [pM] | IC50; hIL36γ; IL-8 production [1] [pM]
B1 | 6.38e-12 | 6.51e-12 | 7.61e-12 | 4.77e-12 | 99.7 | 99.9 | 99.3 | 99.6 | ~5280 | –
B2 | 1.19e-11 | 1.31e-11 | 8.59e-12 | 8.61e-12 | 99.2 | 99.2 | 98.5 | 98.7 | ~5230 | –
B3 | 7.52e-12 | 2.58e-12 | 7.24e-12 | 5.15e-12 | 99.5 | 98.8 | 99.1 | 99.3 | ~5260 | –
B4 | 6.45e-12 | 4.01e-12 | 7.06e-12 | 6.62e-12 | 100 | 99.2 | 99.4 | 99.7 | ~5040 | –
B5 | 8.48e-12 | 7.24e-12 | 1.06e-11 | 5.29e-12 | 99.5 | 99.3 | 99.2 | 99.6 | ~5100 | –
B6 | 1.09e-11 | 3.66e-12 | 5.7e-12 | 6.45e-12 | 99.9 | 99.9 | 99.3 | 99.6 | ~5220 | –
B7 | 8.5e-12 | 7.75e-12 | 1.6e-12 | 8.99e-12 | 99.1 | 99.2 | 98.9 | 99.5 | 6000 | –
B8 | ~6.47e-12 | ~4.34e-12 | 3.42e-12 | – | 28.4 | 40.6 | 18.6 | 41.5 | 14500 | 6.2
B9 | – | 5.33e-12 | – | ~6.46e-12 | 20.6 | 44.2 | 21.8 | 59.5 | 18200 | –
B10 | 1.42e-11 | 1.12e-11 | 1.46e-11 | 7.75e-12 | 99.5 | 98.9 | 98.5 | 99.4 | 5750 | –
